In publication doi:10.1101/340026:
Like-named read-outs stand apart in the source and are kept apart here.

What was measured:
[1] = biological target: soluble porcine αβ-tubulin (porcine) (UniProt P02550); assay: SEC + SEC-MALS
[2] = biological target: soluble porcine αβ-tubulin (porcine) (UniProt P02550); assay: ITC
[3] = biological target: αβ-tubulin:DRP complex (1:1 molar ratio) (porcine) (UniProt P02550); assay: ITC
[4] = biological target: αβ-tubulin:DRP complex (1:1 molar ratio) (porcine) (UniProt P02550); assay: ITC; remark: listed apart in the source
[5] = biological target: soluble porcine αβ-tubulin (porcine) (UniProt P02550); assay: SEC + SEC-MALS; remark: listed apart in the source

designer ankyrin repeat protein, Darpin-D1 (DRP) (designed binder)
stoichiometry N [1]: 1
Kd [2]: 149 nM

DRP with the N-terminal ankyrin repeat removed (DRPΔN) (designed binder)
Kd [2]: 461 nM

B1: isolated TOG2 (residues 320-510) (domain or fragment)
chain: KDNDFFNLVAILTKSVSKDANIMVVINAAHCIQAMAKGLRSNFSKYASTSINALLERSKEKKANVIESLSSAMDAVLATSSLDDLAELIASFAGNKNPQIKSSCFSLFSRSFSNMTSLPSKFTVDTCAKACVPGVSDTFEPVRSAAAEALGVLMKLVGERAINQYLSPLDDIRKSKIRSFYETATVKAKAP
Kd [3]: 3250 nM
Kd [4]: 173 nM

B2: isolated TOG1 (residues 1-270) (domain or fragment)
chain: MSQDQEEDYSKLPLESRIVHKVWKVRLSAYEECSKSFSLSADGSDNCFELWNNQSELWKSVLTDSNVAAQEAGTAAFVAYCRFSDPSHLLKAREISVLSISEKCLTSPRAGTRENALEALMLLVEADSAAPVIESIIPSLSARSPKVIASNVAAIASLVEQFGAKVIPSKMIIPHISNLFGHADKNVRKEASRLTVNIYRWTGDPLKDLLFKDLRPVQTKELESLFAELPTEPPKQTRFLKSQQPTSEPNVETQVEEQPALENEESEPEP
Kd [3]: 1500 nM
Kd [4]: 70 nM

B3: dimeric S. pombe Alp14 TOG array (residues 1-690) (domain or fragment)
chain: MSQDQEEDYSKLPLESRIVHKVWKVRLSAYEECSKSFSLSADGSDNCFELWNNQSELWKSVLTDSNVAAQEAGTAAFVAYCRFSDPSHLLKAREISVLSISEKCLTSPRAGTRENALEALMLLVEADSAAPVIESIIPSLSARSPKVIASNVAAIASLVEQFGAKVIPSKMIIPHISNLFGHADKNVRKEASRLTVNIYRWTGDPLKDLLFKDLRPVQTKELESLFAELPTEPPKQTRFLKSQQPTSEPNVETQVEEQPALENEESEPEPSDDQFDLVEEVDVLPNVDPNLETLMASSKWKDRKEALDKLLPVLSQPKIKDNDFFNLVAILTKSVSKDANIMVVINAAHCIQAMAKGLRSNFSKYASTSINALLERSKEKKANVIESLSSAMDAVLATSSLDDLAELIASFAGNKNPQIKSSCFSLFSRSFSNMTSLPSKFTVDTCAKACVPGVSDTFEPVRSAAAEALGVLMKLVGERAINQYLSPLDDIRKSKIRSFYETATVKAKAPTKKSKVKPSKQEESKVVVPSNAKAVKKSVVPSSPVVPSPRKATNKSLSMDVSKGNAFENGPLLPRPTTRPVSRGLSRGTSSSLQQKVKASTPLNSGALNETVQNLKNMELDDPAPQPAKHSRVDRYEHPKVLEDNDSTISSLESLKRENEELREQLKVEHEENISMQKQLSELKGELNTL
stoichiometry N [5]: 4
stoichiometry N [1]: 4

B4: monomeric S. pombe Alp14 TOG1-TOG2 array (residues 1-510) (domain or fragment)
chain: MSQDQEEDYSKLPLESRIVHKVWKVRLSAYEECSKSFSLSADGSDNCFELWNNQSELWKSVLTDSNVAAQEAGTAAFVAYCRFSDPSHLLKAREISVLSISEKCLTSPRAGTRENALEALMLLVEADSAAPVIESIIPSLSARSPKVIASNVAAIASLVEQFGAKVIPSKMIIPHISNLFGHADKNVRKEASRLTVNIYRWTGDPLKDLLFKDLRPVQTKELESLFAELPTEPPKQTRFLKSQQPTSEPNVETQVEEQPALENEESEPEPSDDQFDLVEEVDVLPNVDPNLETLMASSKWKDRKEALDKLLPVLSQPKIKDNDFFNLVAILTKSVSKDANIMVVINAAHCIQAMAKGLRSNFSKYASTSINALLERSKEKKANVIESLSSAMDAVLATSSLDDLAELIASFAGNKNPQIKSSCFSLFSRSFSNMTSLPSKFTVDTCAKACVPGVSDTFEPVRSAAAEALGVLMKLVGERAINQYLSPLDDIRKSKIRSFYETATVKAKAP
stoichiometry N [5]: 2
stoichiometry N [1]: 2
